From patent publication US9845340B2, “Peptides that specifically bind HGF receptor (cMet) and uses thereof” (Dyax Corp., priority 2003, dated 2017)

Columns and labels:
[1] = biological target: T1, cMet-Fc fusion protein (or similar target) (Mus musculus, UniProt P16056); assay: Fluorescence anisotropy / polarization direct binding, mouse cMet; parameters: key: NB = no binding; settings: fluorescein-labeled peptide
T1 construct: Fc
Experimental: Fluorescence anisotropy measurements were performed in 384-well microplates in a volume of 10 μL in binding buffer (PBS, 0.01% Tween-20, pH 7.5) using a Tecan Polarion fluorescence polarization plate reader ([…]). The concentration of fluorescein-labeled peptide was held constant (20 nM) and the concentration of cMet-Fc fusion protein (or similar target) was varied. Binding mixtures were equilibrated for 10 minutes in the microplate at 30 C before measurement. The observed change in anisotropy was fit to the equation below via nonlinear regression to obtain the apparent KD. This equation (1) assumes that the synthetic peptide and cMet form a reversible complex in solution with 1:1 stoichiometry.
[formula] where robs is the observed anisotropy, rfree is the anisotropy of the free peptide, rbound is the anisotropy of the bound peptide, KD is the apparent dissociation constant, cMet is the total cMet concentration, and P is the total fluorescein-labeled peptide concentration. KD was calculated in a direct binding assay (KD,B) and therefore these values represent cMet binding to the fluorescein labeled peptide.

cMet-Fc fusion protein [2] = biological target: T2, cMet-Fc fusion protein (Homo sapiens, UniProt P08581); assay: Protein phage ELISA: peptide-displaying phage binding to soluble cMet-Fc versus TRAIL-Fc; settings: phage isolate; cMet-Fc vs. TRAIL-Fc
T2 sequence (P08581 25-307 limits assumed): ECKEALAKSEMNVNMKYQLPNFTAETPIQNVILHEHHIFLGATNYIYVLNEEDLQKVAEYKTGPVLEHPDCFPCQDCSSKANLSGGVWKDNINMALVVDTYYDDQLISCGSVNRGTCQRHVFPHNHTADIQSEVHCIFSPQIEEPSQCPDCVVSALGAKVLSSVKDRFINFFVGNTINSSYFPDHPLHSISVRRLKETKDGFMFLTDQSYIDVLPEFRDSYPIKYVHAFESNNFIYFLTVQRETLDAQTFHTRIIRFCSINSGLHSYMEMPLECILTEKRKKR
T2 sequence (P08581 with tags, fused parts or gaps limits assumed): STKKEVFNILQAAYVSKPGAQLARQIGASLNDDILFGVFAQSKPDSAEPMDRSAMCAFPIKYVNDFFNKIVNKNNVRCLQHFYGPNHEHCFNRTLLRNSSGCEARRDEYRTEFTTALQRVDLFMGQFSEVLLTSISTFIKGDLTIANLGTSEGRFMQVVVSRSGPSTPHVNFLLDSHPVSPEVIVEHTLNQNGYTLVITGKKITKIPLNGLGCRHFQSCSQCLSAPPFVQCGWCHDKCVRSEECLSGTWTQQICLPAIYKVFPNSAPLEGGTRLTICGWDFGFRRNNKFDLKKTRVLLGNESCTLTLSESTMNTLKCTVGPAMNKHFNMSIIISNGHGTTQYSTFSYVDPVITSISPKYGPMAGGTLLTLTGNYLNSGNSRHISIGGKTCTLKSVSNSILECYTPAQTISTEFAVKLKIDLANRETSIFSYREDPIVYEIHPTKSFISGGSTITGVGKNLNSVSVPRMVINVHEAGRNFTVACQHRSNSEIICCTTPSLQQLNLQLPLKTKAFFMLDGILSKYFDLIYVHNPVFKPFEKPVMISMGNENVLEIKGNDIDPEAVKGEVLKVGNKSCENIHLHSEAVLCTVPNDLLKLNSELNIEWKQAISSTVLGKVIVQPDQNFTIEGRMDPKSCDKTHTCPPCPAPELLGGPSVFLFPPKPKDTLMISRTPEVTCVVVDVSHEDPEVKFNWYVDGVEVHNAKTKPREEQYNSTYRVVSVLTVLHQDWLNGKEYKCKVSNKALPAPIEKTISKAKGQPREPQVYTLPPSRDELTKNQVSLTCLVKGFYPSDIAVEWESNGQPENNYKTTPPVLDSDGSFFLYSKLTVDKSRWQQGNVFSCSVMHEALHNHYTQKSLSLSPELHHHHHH
Procedure, shortened: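 Plates coated with 0.5 μg/mL cMet-Fc or, as background, TRAIL-Fc, then blocked with 3% BSA in PBST. Peptide-displaying phage bound 2 h at room temperature. Detection with HRP-anti-M13 antibody.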

[3] = biological target: T3, 3T3 cells that over-express human cMet (Homo sapiens, UniProt P08581); assay: Whole cell ELISA of peptide-displaying phage; type: cell-based; settings: phage isolate; 3T3 cells expressing human cMet vs. non-expressing 3T3 cells
T3 construct: expressed in transfected cells; host or cells: 3T3 cells
T3 sequence (P08581 25-1390): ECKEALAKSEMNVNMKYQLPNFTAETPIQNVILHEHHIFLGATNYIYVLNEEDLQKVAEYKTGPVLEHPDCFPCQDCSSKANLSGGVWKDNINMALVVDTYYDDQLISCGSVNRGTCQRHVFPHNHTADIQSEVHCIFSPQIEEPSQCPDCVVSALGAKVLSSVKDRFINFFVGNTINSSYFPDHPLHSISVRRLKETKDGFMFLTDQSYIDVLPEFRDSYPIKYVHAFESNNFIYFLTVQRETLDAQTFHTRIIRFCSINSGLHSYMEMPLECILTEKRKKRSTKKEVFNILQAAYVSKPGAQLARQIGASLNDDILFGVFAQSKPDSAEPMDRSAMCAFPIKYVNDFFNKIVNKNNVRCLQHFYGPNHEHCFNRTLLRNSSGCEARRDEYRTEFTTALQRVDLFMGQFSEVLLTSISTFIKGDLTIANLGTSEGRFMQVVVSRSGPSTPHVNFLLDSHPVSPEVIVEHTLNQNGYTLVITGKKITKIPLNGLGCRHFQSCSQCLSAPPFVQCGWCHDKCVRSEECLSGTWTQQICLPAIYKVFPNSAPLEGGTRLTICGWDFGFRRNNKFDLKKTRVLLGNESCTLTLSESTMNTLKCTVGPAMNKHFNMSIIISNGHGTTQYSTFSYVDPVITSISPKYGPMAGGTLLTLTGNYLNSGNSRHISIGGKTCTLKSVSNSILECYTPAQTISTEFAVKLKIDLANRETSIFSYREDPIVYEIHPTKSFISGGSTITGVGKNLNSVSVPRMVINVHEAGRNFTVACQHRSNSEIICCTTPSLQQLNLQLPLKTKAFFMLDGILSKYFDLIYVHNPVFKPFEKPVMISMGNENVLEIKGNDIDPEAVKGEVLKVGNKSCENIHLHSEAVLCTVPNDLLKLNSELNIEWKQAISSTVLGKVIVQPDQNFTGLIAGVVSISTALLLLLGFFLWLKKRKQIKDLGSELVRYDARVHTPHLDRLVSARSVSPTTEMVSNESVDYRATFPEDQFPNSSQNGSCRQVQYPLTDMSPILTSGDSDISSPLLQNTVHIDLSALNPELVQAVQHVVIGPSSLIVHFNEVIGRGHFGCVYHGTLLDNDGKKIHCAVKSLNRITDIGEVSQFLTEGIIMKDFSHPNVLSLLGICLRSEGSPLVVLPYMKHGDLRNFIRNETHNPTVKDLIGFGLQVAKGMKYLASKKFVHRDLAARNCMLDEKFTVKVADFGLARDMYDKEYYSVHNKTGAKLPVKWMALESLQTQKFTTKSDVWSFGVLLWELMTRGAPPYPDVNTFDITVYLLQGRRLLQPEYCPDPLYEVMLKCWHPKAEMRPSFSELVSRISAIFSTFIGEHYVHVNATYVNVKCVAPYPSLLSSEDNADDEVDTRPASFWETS
Procedure, shortened: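 3T3 cells over-expressing human cMet seeded 10^5/well, pelleted and fixed with 0.1% glutaraldehyde 12 min at 37 °C. Blocked peptide-displaying phage bound 1 h at room temperature; after PBST wash, bound phage detected with HRP-conjugated anti-M13 antibody.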

cMet-Fc fusion protein [4] = biological target: T2, cMet-Fc fusion protein; assay: HGF competition protein ELISA; settings: % of binding in the absence of HGF
Experimental: This competition ELISA identifies peptides that serve as “HGF antagonistic peptides”, peptides that block HGF-mediated signaling events (e.g., proliferation). These assays were conducted using the peptide-displaying phage discovered from the initial selection and screening campaigns using the first generation peptide libraries. Briefly, 96-well plates were coated overnight at 4 C with 0.5 μg/mL of cMet-Fc fusion protein or TRAIL-Fc fusion protein (background). The plates were blocked for 2 hours at 37 C with 3% BSA in PBST. The plates were washed with PBST, and 100 μL of HGF (either at 100 ng/mL or 500 ng/mL in PBST) was added to each well. The plates were incubated for 30 minutes at room temperature after which the plates were washed with PBST and 70 μL of HGF (143 ng/mL or 714 ng/mL) or 70 μL of PBST was added to the respective wells. This was followed by an addition of 30 μL of peptide-displaying phage overnight culture to each well. The plates were incubated for 2 hours at room temperature, washed with PBST and cMet-binding peptide-displaying phage was detected using an HRP-conjugated anti-M13 antibody.

T1 sequence (P16056 25-306 limits assumed): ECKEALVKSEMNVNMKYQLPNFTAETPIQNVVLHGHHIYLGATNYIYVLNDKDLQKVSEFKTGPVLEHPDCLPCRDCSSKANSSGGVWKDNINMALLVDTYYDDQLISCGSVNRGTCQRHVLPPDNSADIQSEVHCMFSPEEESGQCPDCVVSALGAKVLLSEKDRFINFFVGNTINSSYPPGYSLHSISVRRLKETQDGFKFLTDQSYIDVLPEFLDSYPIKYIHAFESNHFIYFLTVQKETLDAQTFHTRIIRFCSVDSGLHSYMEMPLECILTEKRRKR
T1 sequence (P16056 307-929 limits assumed): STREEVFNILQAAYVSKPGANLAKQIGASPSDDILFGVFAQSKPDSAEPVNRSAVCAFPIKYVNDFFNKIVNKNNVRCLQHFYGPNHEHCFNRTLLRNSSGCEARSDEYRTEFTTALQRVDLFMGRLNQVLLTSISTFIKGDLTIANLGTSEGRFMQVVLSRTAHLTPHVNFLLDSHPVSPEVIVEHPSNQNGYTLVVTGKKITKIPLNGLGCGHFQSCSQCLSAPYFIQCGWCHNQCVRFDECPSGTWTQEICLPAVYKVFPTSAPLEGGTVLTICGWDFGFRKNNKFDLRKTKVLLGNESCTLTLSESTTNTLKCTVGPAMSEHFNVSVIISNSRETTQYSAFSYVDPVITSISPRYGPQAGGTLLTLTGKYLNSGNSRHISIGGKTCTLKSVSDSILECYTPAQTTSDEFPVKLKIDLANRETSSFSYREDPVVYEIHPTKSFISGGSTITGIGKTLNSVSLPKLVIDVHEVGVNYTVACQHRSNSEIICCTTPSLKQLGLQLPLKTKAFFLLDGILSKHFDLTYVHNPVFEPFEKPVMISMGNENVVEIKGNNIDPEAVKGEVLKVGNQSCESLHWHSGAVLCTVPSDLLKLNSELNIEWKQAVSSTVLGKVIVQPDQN

| Compound | Kd (mouse) [1] | Protein ELISA (cMet-Fc fusion protein [2]) [fold over background] | WC ELISA [3] [fold over background] | HGF 100 ng/mL (cMet-Fc fusion protein [4]) | HGF 500 ng/mL (cMet-Fc fusion protein [4]; HGF 500 ng/mL) [%] |
| --- | --- | --- | --- | --- | --- |
| CSCC[C@@H]1NC(=O)[C@@H](NC(=O)[C@H](CCSC)NC(=O)[C@H](CCC(=O)O)NC(=O)[C@@H]2CCCN2C(=O)[C@H](CO)NC(=O)CNC(C)=O)CSSC[C@@H](C(=O)N[C@@H](CC(N)=O)C(=O)N[C@@H](Cc2c[nH]cn2)C(=O)N[C@@H](Cc2c[nH]cn2)C(=O)N[C@@H](C)C(=O)N2CCC[C@H]2C(=O)NCC(=O)NCC(=O)NCC(=O)N[C@@H](CCCCNC(=O)c2ccc3c(c2)C(=O)OC32c3ccc(O)cc3Oc3cc(O)ccc32)C(N)=O)NC(=O)[C@@H]2CCCN2C(=O)[C@H](Cc2ccc(O)cc2)NC(=O)[C@H](CC(C)C)NC(=O)[C@H](Cc2ccccc2)NC(=O)[C@@H]2CCCN2C(=O)[C@H](Cc2ccccc2)NC(=O)[C@H](CCSC)NC1=O [SEQ ID NO: 369] | NB |  |  |  |  |
| GSILYCINRNDPQCPYTAP (Synthetically generated cMet-binding peptide sequence) [SEQ ID NO: 101] |  | 3.0 | 1.27 | 9S% |  |
| CC[C@H](C)[C@@H]1NC(=O)[C@H](Cc2ccccc2)NC(=O)[C@H](CCC(=O)O)NC(=O)[C@@H](NC(=O)[C@H](Cc2c[nH]cn2)NC(=O)[C@H](Cc2ccccc2)NC(=O)[C@H](CC(=O)O)NC(=O)[C@H](CC(=O)O)NC(=O)CNC(C)=O)CSSC[C@@H](C(=O)N[C@@H](Cc2ccc(O)cc2)C(=O)N[C@@H](Cc2ccccc2)C(=O)N[C@@H](CC(N)=O)C(=O)N[C@@H](CC(=O)O)C(=O)N2CCC[C@H]2C(=O)NCC(=O)NCC(=O)NCC(=O)N[C@@H](CCCCNC(=O)c2ccc3c(c2)C(=O)OC32c3ccc(O)cc3Oc3cc(O)ccc32)C(N)=O)NC(=O)[C@H]([C@@H](C)CC)NC(=O)[C@H](CCC(=O)O)NC(=O)[C@H](CO)NC(=O)[C@H](CCC(N)=O)NC(=O)[C@H](Cc2ccc(O)cc2)NC(=O)[C@H](CC(=O)O)NC(=O)[C@H](CC(=O)O)NC1=O [SEQ ID NO: 391] |  | 12.4 | 1.37 |  |  |
| AGDFICQGPPSFVCTNIGT (Synthetically generated cMet-binding peptide sequence) [SEQ ID NO: 097] |  | 8.4 | 1.27 |  |  |
| GSMLGCLFEHQNKYDCYVLAP (Synthetically generated cMet-binding peptide sequence) [SEQ ID NO: 379] |  | 3.2 | 1.43 |  |  |
| AGYFHCSGSPWFQCDYYGT (Synthetically generated cMet-binding peptide sequence) [SEQ ID NO: 081] |  | 9.1 | 1.40 |  |  |
| GDNRFCSWVYNVDDWWCVDNDP (Synthetically generated cMet-binding peptide sequence) [SEQ ID NO: 398] |  | 6.2 | 1.30 |  |  |
| AGMDFCEGFWFLCIGNAT (Synthetically generated cMet-binding peptide sequence) [SEQ ID NO: 035] |  | 3.5 | 1.23 |  |  |
| AGGNWCSFYEELCEWLGT (Synthetically generated cMet-binding peptide sequence) [SEQ ID NO: 043] |  | 4.2 | 1.37 |  |  |
| GDASWCDENSPAAWFYCELWDP (Synthetically generated cMet-binding peptide sequence) [SEQ ID NO: 394] |  | 13.4 | 1.37 |  |  |
| AGPLFCFEWPSLCHWGGT (Synthetically generated cMet-binding peptide sequence) [SEQ ID NO: 033] |  | 3.8 | 1.43 |  |  |
| AGSIACTGWPYFSCIDLGT (Synthetically generated cMet-binding peptide sequence) [SEQ ID NO: 088] |  | 5.6 | 1.10 |  |  |
| AGDWICHGPPMFECEWVGT (Synthetically generated cMet-binding peptide sequence) [SEQ ID NO: 058] |  | 15.9 | 1.17 |  |  |
| GSLIFCPYGECMMYAP (Synthetically generated cMet-binding peptide sequence) [SEQ ID NO: 005] |  | 3.5 | 1.33 |  |  |
| AGYFECKGPPTFECWLSGT (Synthetically generated cMet-binding peptide sequence) [SEQ ID NO: 060] |  | 8.1 | 1.43 |  |  |
| AQSDHDHAHWGVKHWPFRRYQ (Synthetically generated cMet-binding peptide sequence) [SEQ ID NO: 482] |  | 3.1 | 1.20 |  |  |
| CC(=O)N[C@@H](C)C(=O)NCC(=O)N[C@@H](Cc1ccc(O)cc1)C(=O)N[C@H](C(=O)N[C@@H](CO)C(=O)N[C@H]1CSSC[C@@H](C(=O)N[C@H](C(=O)N2CCC[C@H]2C(=O)N[C@@H](Cc2ccc(O)cc2)C(=O)NCC(=O)N[C@H](C(=O)NCC(=O)NCC(=O)NCC(=O)N[C@@H](CCCCNC(=O)c2ccc3c(c2)C(=O)OC32c3ccc(O)cc3Oc3cc(O)ccc32)C(N)=O)[C@@H](C)O)[C@@H](C)O)NC(=O)[C@H](CCC(=O)O)NC(=O)[C@H](Cc2ccccc2)NC(=O)[C@H](CO)NC(=O)[C@@H]2CCCN2C(=O)[C@@H]2CCCN2C(=O)CNC(=O)[C@H](C(C)C)NC1=O)[C@@H](C)O [SEQ ID NO: 059] |  | 21.2 | 1.43 |  |  |
| AGVLQCIGFEWFCDIWGT (Synthetically generated cMet-binding peptide sequence) [SEQ ID NO: 022] |  | 3.4 | 1.40 |  |  |
| GDYRMCQISDMWGNYECSSDDP (Synthetically generated cMet-binding peptide sequence) [SEQ ID NO: 400] |  | 6.1 | 1.30 |  |  |
| AQDNTADQMFNGFHVLAMYMV (Synthetically generated cMet-binding peptide sequence) [SEQ ID NO: 481] |  | 3.3 | 1.37 |  |  |
| GSSHCNQMITPWQNCGMRAP (Synthetically generated cMet-binding peptide sequence) [SEQ ID NO: 374] |  | 3.3 | 1.37 |  |  |
| AGWYNCSGENFWNCKWIGT (Synthetically generated cMet-binding peptide sequence) [SEQ ID NO: 082] |  | 14.3 | 1.43 | 61% | 79 |
| CC[C@H](C)[C@H](NC(=O)[C@H](CC(=O)O)NC(=O)[C@H](Cc1ccccc1)NC(=O)[C@H](Cc1ccccc1)NC(=O)[C@H](CCC(=O)O)NC(=O)[C@H](Cc1c[nH]c2ccccc12)NC(=O)[C@@H](NC(=O)[C@H](CCC(=O)O)NC(=O)[C@H](CCCCN)NC(=O)[C@H](CCC(N)=O)NC(=O)[C@H](C)NC(C)=O)[C@@H](C)O)C(=O)N[C@H](C(=O)N[C@@H](Cc1ccc(O)cc1)C(=O)NCC(=O)N[C@@H](CO)C(=O)NCC(=O)N[C@@H](Cc1c[nH]c2ccccc12)C(=O)N[C@@H](CCCCN)C(=O)N[C@@H](Cc1ccccc1)C(=O)N[C@@H](CC(N)=O)C(=O)N[C@@H](CO)C(=O)N1CCC[C@H]1C(=O)NCC(=O)NCC(=O)NCC(=O)N[C@@H](CCCCNC(=O)c1ccc2c(c1)C(=O)OC21c2ccc(O)cc2Oc2cc(O)ccc21)C(N)=O)C(C)C [SEQ ID NO: 466] |  | 4.0 | 1.23 |  |  |
